Patent US20050064507A1, “Determining kinase specificity” (priority 2003, published 2005)

What was measured:
PKC-zeta = molecular target: T1, PKC-zeta (Homo sapiens, UniProt Q05513); experiment: In vitro kinase assay: peptide phosphorylation by PKC-zeta; format: biochemical; settings: for PKC-zeta phosphorylation: normalized to best substrate
T1 construct: purchased Calbiochem
T1 sequence (Q05513 1-592): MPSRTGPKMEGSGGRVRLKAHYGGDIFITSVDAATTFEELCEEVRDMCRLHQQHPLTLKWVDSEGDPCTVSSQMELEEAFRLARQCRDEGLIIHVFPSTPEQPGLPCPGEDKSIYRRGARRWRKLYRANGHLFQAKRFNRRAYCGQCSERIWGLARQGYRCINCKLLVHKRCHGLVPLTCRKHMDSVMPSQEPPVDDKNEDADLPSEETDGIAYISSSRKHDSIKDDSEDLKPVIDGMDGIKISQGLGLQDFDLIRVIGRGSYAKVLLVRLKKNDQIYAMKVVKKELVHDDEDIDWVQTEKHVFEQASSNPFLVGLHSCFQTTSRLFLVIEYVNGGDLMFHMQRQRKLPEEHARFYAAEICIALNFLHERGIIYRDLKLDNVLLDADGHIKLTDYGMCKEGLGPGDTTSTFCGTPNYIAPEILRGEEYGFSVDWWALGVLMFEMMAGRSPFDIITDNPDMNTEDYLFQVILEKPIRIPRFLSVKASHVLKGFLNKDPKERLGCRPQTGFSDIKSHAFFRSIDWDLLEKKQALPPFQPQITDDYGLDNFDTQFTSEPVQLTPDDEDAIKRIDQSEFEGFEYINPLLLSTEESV
Method: Catalytically active preparations of the kinases of interest were either purchased or prepared. Purchased and tested active kinase preparations including the following: PKC-alpha, PKC-delta, PKC-epsilon, PKC-zeta, PKC-mu, PKA, PKG from Calbiochem, ROK alpha/ROCK-II, active from Upstate Biotechnology, and AKT1 from Panvera.
(§1) The conditions of the kinase assay and the amount of active kinase used varied with the kinase and with the accuracy needed. For a typical experiment, 5-20 ng of kinase was used per well and each peptide pool was assayed in duplicate wells. Note that the absolute amount of kinase used was not usually a critical parameter, because the desired information related to specificity of the kinase not its absolute activity, and robustness of the assay depends on comparisons of the same amount of kinase on different peptides. The combination of kinase concentration and assay duration was modified to assure that the stoichiometry of peptide phosphorylation never exceeded 5%. The choice of kinase buffer depended on the kinase being analyzed. For studies of PKC, 100 mM HEPES, 0.05% Triton-X100, 1 mM CaCl2, 20 mM MgCl2, 0.2 mg/ml phosphatidyl serine (Avanti Polar Lipids), PMA 100 ng/ml was typically used. The lipid stock was prepared by transferring 3 mg phosphatidyl serine into iced mixture of 450 μl water plus 50 μl of 10% Triton-X100, sonicating 10 times on ice for 1 sec each.
(§2) The kinase reaction mixture was assembled by sequential addition to a tube held on ice of: 5 μl peptide (100 μM for final concentration of 10 μM), 15 μl of kinase (typically 5 ng/well, in appropriate kinase buffer), 30 μl of ATP (1 uCi/well of ^32P-gamma ATP in a stock of 167 μM cold ATP in the kinase buffer; for final concentration for 100 μM ATP). The mixture was rapidly warmed to desired reaction temperature (30° C. for PKC) and incubated for the desired duration (usually 10 minutes). The kinase assay was terminated by transfer to 4° C. water batch, and rapid addition of an equal volume (50 μl) of stop solution [0.1M ATP+0.1M EDTA in water, pH 8].
(§3) The peptides were then captured from the reaction mixture by transfer to a Reacti-Bind Streptavidin High Binding Capacity Coated Plates (HBC) (Pierce Biotechnology) as follows. The HBC plates were pre-rinsed three times with PBS/Tween PBS/Tween20 0.05% (PBS/Tween). Part of all of the reaction mixture was then transferred wells of a HBC plate pre-filled with 90 μl of phosphate-buffered saline (PBS); typically each aliquots of each phosphorylation reaction were transferred to duplicate HBC plates to assure accuracy by additional replication
For kinase assays done at the standard peptide concentration of 10 μM, the peptide concentration in the reaction mixture becomes 5 μM after addition of the stop solution; consequently 10 μl of the reaction (50 pMoles of peptide) was transferred to the HBC plate. More generally, the amount of reaction mixture transferred was estimated to be about 50 pMoles of peptide. […] The HBC plates were incubated for 0.5 to 1.5 hr at room temperature for complete binding of biotinylated peptides to plate-bound streptavidin. The HBC plates were then washed extensively with PBS/Tween. Five washes were done routinely and additional wash steps were added if the wash solution removed from the plate had measurable radioactivity as detected using a Geiger counter. This step is essential to obtaining a good the signal to noise ratio because the fraction of radioactivity incorporated in the peptides was a tiny fraction of the total in the reaction mixture. The wells were air-dried. A volume of 40-50 μl of microScint-20 (Packard Instruments) was added to each well. The plates were covered with stick-on film sheet. Radioactive emissions were measured in a TopCount NXT Microplate Scintillation and Luminescence Counter (Packard Instruments). Typically samples were counted for 5 minutes (or more) to improve the signal to noise ratio when counts were low. […]

PKC = experiment: In vitro phosphorylation by PKC (average of isoforms alpha, epsilon, delta, theta); format: biochemical; settings: for PKC average: average of PKC-alpha, -epsilon, -theta, normalized to best substrate; for average (phosphorylation by PKC-theta, -delta, -epsilon, -alpha): average over PKC-theta, -epsilon and -alpha at 10 and 1 uM peptide, relative to best substrate
Method: as §1, §2, §3
For kinase assays done at the standard peptide concentration of 10 μM, the peptide concentration in the reaction mixture becomes 5 μM after addition of the stop solution; consequently 10 μl of the reaction (50 pMoles of peptide) was transferred to the HBC plate. More generally, the amount of reaction mixture transferred was estimated to be about 50 pMoles of peptide. […] The HBC plates were incubated for 0.5 to 1.5 hr at room temperature for complete binding of biotinylated peptides to plate-bound streptavidin. The HBC plates were then washed extensively with PBS/Tween. Five washes were done routinely and additional wash steps were added if the wash solution removed from the plate had measurable radioactivity as detected using a Geiger counter. This step is essential to obtaining a good the signal to noise ratio because the fraction of radioactivity incorporated in the peptides was a tiny fraction of the total in the reaction mixture. The wells were air-dried. A volume of 40-50 μl of microScint-20 (Packard Instruments) was added to each well. The plates were covered with stick-on film sheet. Radioactive emissions were measured in a TopCount NXT Microplate Scintillation and Luminescence Counter (Packard Instruments). Typically samples were counted for 5 minutes (or more) to improve the signal to noise ratio when counts were low.
Many peptides that are good substrates for PKC enzymes were identified using the methods of the invention. For example, Tables 4 and 5 provide a listing of peptides identified as potentially useful kinase substrates. […]

Substance: 101 (GAPPRRSSIRNAH) [compound 101]
- PKC-zeta phosphorylation (PKC-zeta): 3%
- PKC average (PKC): 23%

Substance: 121 (LRRRSLRRSNSISKSPGP) [compound 121]
- phosphorylation by PKC zeta (PKC-zeta; peptide concentration 1 uM): 60
- phosphorylation by PKC zeta (PKC-zeta; peptide concentration 10 uM): 56
- average (phosphorylation by PKC-theta, -delta, -epsilon, -alpha) (PKC): 50

Substance: 122 (RAITSTLASSFKRRR) [compound 122]
- phosphorylation by PKC zeta (PKC-zeta; peptide concentration 1 uM): 20
- phosphorylation by PKC zeta (PKC-zeta; peptide concentration 10 uM): 17
- average (phosphorylation by PKC-theta, -delta, -epsilon, -alpha) (PKC): 49

Substance: 105 (ALRRPSLRREADD) [compound 105]
- PKC-zeta phosphorylation (PKC-zeta): 4%
- PKC average (PKC): 21%

Substance: 104 (EKIKRSSLKKVDSLKK) [compound 104]
- PKC-zeta phosphorylation (PKC-zeta): 3%
- PKC average (PKC): 22%

Substance: 110 (EGGDRRASGRRK) [compound 110]
- PKC-zeta phosphorylation (PKC-zeta): 3%
- PKC average (PKC): 15%

Substance: 86 (RQRKRKLSFRRRTDKD) [compound 86]
- PKC-zeta phosphorylation (PKC-zeta): 28%
- PKC average (PKC): 48%
